T1: soluble LGR5-Fc fusion protein (human, UniProt O75473 22-564)
T1 construct: range 22-564; Expressed in insect cells with baculovirus, purified on protein A; not shown: human Fc
T1 sequence (looked up): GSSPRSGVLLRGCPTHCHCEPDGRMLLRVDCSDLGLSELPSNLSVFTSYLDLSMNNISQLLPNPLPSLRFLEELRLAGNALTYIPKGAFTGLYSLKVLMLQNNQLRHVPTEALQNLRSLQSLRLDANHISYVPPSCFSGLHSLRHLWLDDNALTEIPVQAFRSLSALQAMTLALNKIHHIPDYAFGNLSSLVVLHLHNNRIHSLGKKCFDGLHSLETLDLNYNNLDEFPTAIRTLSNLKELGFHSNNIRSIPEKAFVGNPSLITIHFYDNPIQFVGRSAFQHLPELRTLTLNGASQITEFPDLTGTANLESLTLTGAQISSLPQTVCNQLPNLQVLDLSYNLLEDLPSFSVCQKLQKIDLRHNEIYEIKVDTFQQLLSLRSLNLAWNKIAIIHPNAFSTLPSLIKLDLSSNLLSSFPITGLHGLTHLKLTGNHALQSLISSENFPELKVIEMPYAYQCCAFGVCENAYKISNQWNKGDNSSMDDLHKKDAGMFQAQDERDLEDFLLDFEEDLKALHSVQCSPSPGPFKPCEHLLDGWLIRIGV

B1: recombinant human RSPO1-Fc fusion protein (Fc fusion)
chain: SRGIKGKRQRRISAEGSQACAKGCELCSEVNGCLKCSPKLFILLERNDIRQVGVCLPSCPPGYFDARNPDMNKCIKCKIEHCEACFSHNFCTKCKEGLYLHKGRCYPACPEGSSAANGTMECSSPAQCEMSEWSPWGPCSKKQQLCGFRRGSEERTRRVLHAPVGDHAACSDTKETRRCTVRRVPCPEGQKRRKGGQGRRENANRNLARKESKEAGAGSRRRKGQQQQQQQGTVGPLTSAGPA
notes: not shown: human Fc region

Tests used:
[1] = target: T1, soluble LGR5-Fc fusion protein; experiment: SPR (Biacore 2000), RSPO-Fc immobilized on CM5 chip, soluble LGR5-Fc injected 100 nM to 0.78 nM
Experimental: Binding affinities between RSPO proteins and LGR5 were analyzed by surface plasmon resonance. A soluble LGR5-Fc construct was generated using standard recombinant DNA techniques. Specifically, amino acids 1-564 of human LGR5 were ligated in frame to human Fc and the recombinant LGR5-Fc fusion protein was expressed in insect cells using baculovirus. The LGR5-Fc fusion protein was purified from the insect medium using protein A chromatography. Cleavage of the LGR5 signal sequence results in a mature LGR5-Fc fusion protein containing amino acids 22-564 of LGR5. Recombinant RSPO1-Fc, RSPO2-Fc, RSPO3-Fc and RSPO4-Fc fusion proteins were immobilized on CM5 chips using standard amine-based chemistry (NHS/EDC). Two-fold dilutions of soluble LGR5-Fc were injected over the chip surface (100 nM to 0.78 nM). Kinetic data were collected over time using a Biacore 2000 system from Biacore Life Sciences (GE Healthcare) and the data were fit using the simultaneous global fit equation to yield affinity constants (KD values) for each RSPO protein (Table 3).

[2] = target: B1; experiment: SPR (Biacore 2000), RSPO1-Fc immobilized on CM5 chip, antibody injected 100 nM to 0.78 nM
Experimental: (§1) The KDs of antibodies 89M4, 89M5, 89M7 and 89M25 were determined using a Biacore 2000 system from Biacore LifeSciences (GE Healthcare). Recombinant human RSPO1-Fc or mouse RSPO1-Fc proteins were immobilized on CM5 chips using standard amine-based chemistry (NHS/EDC). The antibodies were serially diluted 2-fold from 100 nM to 0.78 nM in HBS-P (0.01M HEPES pH7.4, 0.15M NaCl, 0.005% v/v Surfactant P20) and were injected over the chip surface. Kinetic data were collected over time and were fit using the simultaneous global fit equation to yield affinity constants (KD values) for each antibody.

[3] = target: T2, recombinant mouse RSPO1-Fc protein (mouse, UniProt Q9Z132 21-265, limits assumed); experiment: as above
T2 construct: Construct not described; not shown: Fc; not described
Experimental: as §1

Row | Kd [1] [nM] | Kd [2] [nM] | Kd [3] [nM] | Binder
1 | 110 | – | – | B1
2 | 73 | – | – | recombinant human RSPO4-Fc fusion protein (Fc fusion, not shown: human Fc region) LNRRKKQVGTGLGGNCTGCIICSEENGCSTCQQRLFLFIRREGIRQYGKCLHDCPPGYFGIRGQEVNRCKKCGATCESCFSQDFCIRCKRQFYLYKGKCLPTCPPGTLAHQNTRECQGECELGPWGGWSPCTHNGKTCGSAWGLESRVREAGRAGHEEAATCQVLSESRKCPIQRPCPGERSPGQKKGRKDRRPRKDRKLDRRLDVRPRQPGLQP
3 | < 1 | – | – | recombinant human RSPO3-Fc fusion protein (Fc fusion, not shown: human Fc region) QNASRGRRQRRMHPNVSQGCQGGCATCSDYNGCLSCKPRLFFALERIGMKQIGVCLSSCPSGYYGTRYPDINKCTKCKADCDTCFNKNFCTKCKSGFYLHLGKCLDNCPEGLEANNHTMECVSIVHCEVSEWNPWSPCTKKGKTCGFKRGTETRVREIIQHPSAKGNLCPPTNETRKCTVQRKKCQKGERGKKGRERKRKKPNKGESKEAIPDSKSLESSKEIPEQRENKQQQKKRKVQDKQKSVSVSTVH
4 | – | < 0.1 | < 0.1 | anti-RSPO1 monoclonal antibody 89M4 (antibody, V domains shown) VH: EVQLQQSGPELVKPGASVKISCKTSGYTFTGYTMHWVRQSHGKTLEWIGGINPNNGGTTYNQNFKGKATLTVEKSSTTAYLELRSLTSEDSALYYCARKEFSDGYYFFAYWGQGTLVTVSA VL: DIVMTQSHKFMSTSVGDRVNITCKASQDVIFAVAWYQQKPGQSPKLLIYWASTRHTGVPDRFTGSVSGTDYTLTISSVQAEDLALYYCQQHYSTPWTFGGGTKLEIK
5 | – | < 0.1 | < 0.1 | anti-RSPO1 monoclonal antibody 89M25 (antibody, V domains shown) VH: EVQLQQSGPELVKPGASVKISCKTSGYTFTGYTMHWVRQSHGKTLEWIGGINPNNGGTTYNQNFKGKATLTVEKSSTTAYLELRSLTSEDSALYYCARKEFSDGYYFFAYWGQGTLVTVSA VL: DIVMTQSHKFMSTSVGDRVNITCKASQDVIFAVAWYQQKPGQSPKLLIYWASTRHTGVPDRFTGSVSGTDYTLTISSVQAEDLALYYCQQHYSTPWTFGGGTKLEIK
6 | 14 | – | – | recombinant human RSPO2-Fc fusion protein (Fc fusion, not shown: human Fc region) QGNRWRRSKRASYVSNPICKGCLSCSKDNGCSRCQQKLFFFLRREGMRQYGECLHSCPSGYYGHRAPDMNRCARCRIENCDSCFSKDFCTKCKVGFYLHRGRCFDECPDGFAPLEETMECVEGCEVGHWSEWGTCSRNNRTCGFKWGLETRTRQIVKKPVKDTIPCPTIAESRRCKMTMRHCPGGKRTPKAKEKRNKKKKRKLIERAQEQHSVFLATDRANQ

From patent US20160002344A1 (ONCOMED PHARMACEUTICALS, published 2016)
